The values below are quoted from earlier work in article PMC3749792.

Among the targets are His92 (UniProt position 118, AGVITHTGASG); His40 (UniProt position 66, SNSYPHKYNNY); His27 (UniProt position 53, AGYQLHEDGET).
What all share (test): NMR
What all share (settings): RNase T1, presumably free unmodified enzyme (not stated explicitly)

Regarding “Ribonuclease T1 (RNase T1) (Aspergillus oryzae)”, the pKa with His92 is 7.80; in the series with His40, 7.92; with His27, 7.26.

The term pKa denotes the negative logarithm of the acid dissociation constant.
